Laboratory results taken from US20090214565A1 (BAYLOR RESEARCH INSTITUTE, published 2009).

What was measured:
IFN-α C [1] = target: T1, IFN-α C (human, UniProt P01566 24-189); test: cell-based or functional assay
IFN-α F [2] = target: T2, IFN-α F (human, UniProt P01568 24-189); test: cell-based or functional assay
IFN-α G [3] = target: T3, IFN-α G (human, UniProt P01569 24-189); test: cell-based or functional assay
IFN-α H2 [4] = target: T4, IFN-α H2 (human, UniProt P01570 24-189); test: cell-based or functional assay
IFN-α I [5] = target: T5, IFN-α I (human, UniProt P01571 24-189); test: cell-based or functional assay
IFN-α J1 [6] = target: T6, IFN-α J1 (human, UniProt P01567 24-189); test: cell-based or functional assay
IFN-α K [7] = target: T7, IFN-α K (human, UniProt P05013 24-189); test: cell-based or functional assay
IFN-α4a [8] = target: T8, IFN-α4a (human, UniProt P05014 24-189, limits assumed); test: cell-based or functional assay
IFN-α WA [9] = target: T9, IFN-α WA (human, UniProt P05015 24-189); test: cell-based or functional assay
IFN-α C [10] = target: T1, IFN-α C; test: cell-based or functional assay; remark: listed apart in the source
IFN-α D [11] = target: T10, IFN-α D (human, UniProt P0DY56 24-189); test: cell-based or functional assay
IFN-α F [12] = target: T2, IFN-α F; test: cell-based or functional assay; remark: listed apart in the source
IFN-α G [13] = target: T3, IFN-α G; test: cell-based or functional assay; remark: listed apart in the source
IFN-α H2 [14] = target: T4, IFN-α H2; test: cell-based or functional assay; remark: listed apart in the source
IFN-α I [15] = target: T5, IFN-α I; test: cell-based or functional assay; remark: listed apart in the source
IFN-α J1 [16] = target: T6, IFN-α J1; test: cell-based or functional assay; remark: listed apart in the source
IFN-α K [17] = target: T7, IFN-α K; test: cell-based or functional assay; remark: listed apart in the source
IFN-α4a [18] = target: T8, IFN-α4a; test: cell-based or functional assay; remark: listed apart in the source
IFN-α WA [19] = target: T9, IFN-α WA; test: cell-based or functional assay; remark: listed apart in the source
IFN-β = IFN-β (human, UniProt P01574 22-187); test: cell-based or functional assay
IFN-α C [20] = target: T1, IFN-α C; test: cell-based or functional assay; remark: listed apart in the source
IFN-α D [21] = target: T10, IFN-α D; test: cell-based or functional assay; remark: listed apart in the source
IFN-α F [22] = target: T2, IFN-α F; test: cell-based or functional assay; remark: listed apart in the source
IFN-α G [23] = target: T3, IFN-α G; test: cell-based or functional assay; remark: listed apart in the source
IFN-α H2 [24] = target: T4, IFN-α H2; test: cell-based or functional assay; remark: listed apart in the source
IFN-α I [25] = target: T5, IFN-α I; test: cell-based or functional assay; remark: listed apart in the source
IFN-α J1 [26] = target: T6, IFN-α J1; test: cell-based or functional assay; remark: listed apart in the source
IFN-α K [27] = target: T7, IFN-α K; test: cell-based or functional assay; remark: listed apart in the source
IFN-α4a [28] = target: T8, IFN-α4a; test: cell-based or functional assay; remark: listed apart in the source
IFN-α WA [29] = target: T9, IFN-α WA; test: cell-based or functional assay; remark: listed apart in the source
IFN-α D [30] = target: T10, IFN-α D; test: ELISA, IFN subtype coated
Procedure: Solid-phase binding of all 15 IFNα subtypes was evaluated for screening of MAb specificity by ELISA assay. Briefly, 50 μl/well of 1 μg/ml of a recombinant IFNα protein subtype were coated overnight at 4° C. on ELISA plates (NUNC MaxiSorp™) plates. Coated plates were blocked with PBS+1% BSA and incubated with 50 μl of 25 ng ACO candidate MAb in PBS for 1 hour at 37° C. The assays were developed by incubation with 50 μl/well of an HRP conjugated goat anti-mouse-IgG (Jackson ImmunoResearch) at room temperature for 30 minutes followed by incubation with 100 μl/well of TMB substrate solution (Zymed) for 15 minutes. The reaction was stopped with 100 μl/well of 1 N HCl and read at OD₄₅₀ on an ELISA plate reader.

leukocyte IFN (Sigma) = test: cell-based or functional assay

T9 sequence (P05015 24-189): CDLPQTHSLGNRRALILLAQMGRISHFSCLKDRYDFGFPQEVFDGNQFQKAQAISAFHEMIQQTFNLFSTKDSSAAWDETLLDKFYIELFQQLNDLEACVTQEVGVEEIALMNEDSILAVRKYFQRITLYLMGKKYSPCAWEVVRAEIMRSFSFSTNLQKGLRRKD
T5 sequence (P01571 24-189): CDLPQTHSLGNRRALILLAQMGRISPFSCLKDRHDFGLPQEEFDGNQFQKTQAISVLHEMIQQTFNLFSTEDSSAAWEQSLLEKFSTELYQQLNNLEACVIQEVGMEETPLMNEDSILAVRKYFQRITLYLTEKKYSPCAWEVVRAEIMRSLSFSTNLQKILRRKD
T1 sequence (P01566 24-189): as the sequence (P01571 24-189) above, with A19G, G37R, L38I, T51A, N95D, M106V, T132I, K134R, I161R counted along it
T8 sequence (P05014 24-189 limits assumed): as the sequence (P01571 24-189) above, with P26H, L38F, Q40E, N46H, T51A, N95D, M106V, I161R counted along it
T7 sequence (P05013 24-189): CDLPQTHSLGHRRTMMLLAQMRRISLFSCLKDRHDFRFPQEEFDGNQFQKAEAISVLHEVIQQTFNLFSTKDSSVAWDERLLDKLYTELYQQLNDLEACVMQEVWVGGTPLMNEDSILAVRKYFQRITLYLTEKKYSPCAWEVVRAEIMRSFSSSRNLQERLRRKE
T6 sequence (P01567 24-189 limits assumed): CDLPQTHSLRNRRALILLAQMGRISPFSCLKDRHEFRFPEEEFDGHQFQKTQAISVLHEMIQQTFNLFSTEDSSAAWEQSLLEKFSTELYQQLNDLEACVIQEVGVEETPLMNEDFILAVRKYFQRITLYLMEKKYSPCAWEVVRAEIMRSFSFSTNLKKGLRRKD
T3 sequence (P01569 24-189): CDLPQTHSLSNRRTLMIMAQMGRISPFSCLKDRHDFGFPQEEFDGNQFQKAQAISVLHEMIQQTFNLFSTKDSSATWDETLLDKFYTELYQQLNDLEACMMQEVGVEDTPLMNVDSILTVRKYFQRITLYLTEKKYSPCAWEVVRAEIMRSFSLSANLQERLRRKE
T4 sequence (P01570 24-189): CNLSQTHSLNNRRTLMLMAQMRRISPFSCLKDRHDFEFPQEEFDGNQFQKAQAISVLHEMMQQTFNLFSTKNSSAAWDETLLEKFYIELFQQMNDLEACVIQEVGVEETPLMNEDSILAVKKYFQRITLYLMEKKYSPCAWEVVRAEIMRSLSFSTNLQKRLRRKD
T10 sequence (P0DY56 entry or part of it limits assumed): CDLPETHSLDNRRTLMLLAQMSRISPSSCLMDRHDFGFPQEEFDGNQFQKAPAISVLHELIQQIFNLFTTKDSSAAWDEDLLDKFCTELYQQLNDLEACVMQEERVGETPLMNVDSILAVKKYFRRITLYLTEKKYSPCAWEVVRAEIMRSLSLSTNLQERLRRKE
T2 sequence (P01568 24-189): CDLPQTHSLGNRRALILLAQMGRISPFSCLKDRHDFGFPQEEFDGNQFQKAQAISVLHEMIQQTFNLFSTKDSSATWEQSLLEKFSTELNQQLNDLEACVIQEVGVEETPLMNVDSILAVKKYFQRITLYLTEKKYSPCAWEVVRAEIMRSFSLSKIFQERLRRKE
Chain of IFN-β (P01574 22-187 limits assumed): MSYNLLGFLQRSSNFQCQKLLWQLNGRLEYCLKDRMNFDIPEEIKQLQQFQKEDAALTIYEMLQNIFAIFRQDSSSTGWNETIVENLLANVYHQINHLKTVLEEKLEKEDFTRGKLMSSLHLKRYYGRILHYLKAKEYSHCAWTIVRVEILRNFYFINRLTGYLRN

B1: ACO-1 (antibody, V domains shown)
VH: QVQLQQPGAELVKPGASVKLSCKASGYTFTNYWMHWVKQRPGQGLEWIGEINPSHGRTIYNENFKSKATLTVDKSSITAFMQLSSLTSEDSAVYFCARGGLGPAWFAYWGQGTLVTVSA
VL: QIVLTQSPAIMSASPGEKVTLTCSAGSSVDSSYLYWYQQKPGSSPKLWIYSTSNLASGVPARFSGSGSGTSYSLTISSMEAEDAASYFCHQWSSYPFTFGSGTKLEIKR
notes: also called ACO-1 monoclonal antibody; hybridoma ATCC PTA-6557
- EC50 of neutralization, RG bioassay (IFN-α C [1]): 0.00056 µg/mL
- EC50 of neutralization, RG bioassay (IFN-α F [2]): 0.146 µg/mL
- EC50 of neutralization, RG bioassay (IFN-α G [3]): 0.0271 µg/mL
- EC50 of neutralization, RG bioassay (IFN-α H2 [4]): 0.153 µg/mL
- EC50 of neutralization, RG bioassay (IFN-α I [5]): 0.0135 µg/mL
- EC50 of neutralization, RG bioassay (IFN-α J1 [6]): 0.168 µg/mL
- EC50 of neutralization, RG bioassay (IFN-α K [7]): 0.235 µg/mL
- EC50 of neutralization, RG bioassay (IFN-α4a [8]): 0.00211 µg/mL
- EC50 of neutralization, RG bioassay (IFN-α WA [9]): 0.0848 µg/mL
- percentage neutralization, RG assay (IFN-α C [10]): 91.4%
- percentage neutralization, RG assay (IFN-α D [11]): 12.5%
- percentage neutralization, RG assay (IFN-α F [12]): 83.7%
- percentage neutralization, RG assay (IFN-α G [13]): 92.7%
- percentage neutralization, RG assay (IFN-α H2 [14]): 77.5%
- percentage neutralization, RG assay (IFN-α I [15]): 87.1%
- percentage neutralization, RG assay (IFN-α J1 [16]): 83.9%
- percentage neutralization, RG assay (IFN-α K [17]): 77.9%
- percentage neutralization, RG assay (IFN-α4a [18]): 67.8%
- percentage neutralization, RG assay (IFN-α WA [19]): 86.9%
- percentage neutralization, RG assay (IFN-β): 9%
- percentage neutralization, CPE assay (IFN-α C [20]): 99.4%
- percentage neutralization, CPE assay (IFN-α D [21]): 33%
- percentage neutralization, CPE assay (IFN-α F [22]): 96.6%
- percentage neutralization, CPE assay (IFN-α G [23]): 99%
- percentage neutralization, CPE assay (IFN-α H2 [24]): 95.9%
- percentage neutralization, CPE assay (IFN-α I [25]): 98%
- percentage neutralization, CPE assay (IFN-α J1 [26]): 98.1%
- percentage neutralization, CPE assay (IFN-α K [27]): 98.3%
- percentage neutralization, CPE assay (IFN-α4a [28]): 82.9%
- percentage neutralization, CPE assay (IFN-α WA [29]): 88.7%
- binding result (IFN-α D [30]): no binding (tested: <2-fold over matched controls; 25 ng MAb)
- neutralization of 600 pg leukocyte IFN, RG bioassay (leukocyte IFN (Sigma)): > 50%
